Measurements taken from patent US20160326230A1, “HUMAN RELAXIN ANALOGUE, PHARMACEUTICAL COMPOSITION OF SAME, AND PHARMACEUTICAL APPLICATION OF SAME” (SHANGHAI HENGRUI PHARMACEUTICAL CO., LTD., priority 2013, published 2016).
Positions of bridges follow the written chain, without caps; N, C: chain ends. Chains are numbered I, II in the order given. No end group written: not given here.

Biological target: the receptor on THP-1 cells
Assay: cell-based or functional assay

B1: recombinant human relaxin analog 800814 (ligand)
chain 1: DSWMEEVIKLCGRDLVRAQIAICGMSTWS
chain 2: DLYSALANKCCHVGCTKRSLARFC
modifications: disulfide I:23-II:24; also: two more disulfides among A10, A11, A15 and B11
- EC50 (ng/ml) of cAMP induced in THP-1 cells (cAMP ELISA): 1.5 ng/mL
